US20100068186A1 (published 2010)

T1: catalytic sub-unit of the Telomerase protein peptide on HLA-A*02:01 (human)
T1 peptide: ILAKFLHWL


Molecular target: T1, catalytic sub-unit of the Telomerase …
Assay: Kd or kinetics

Binder | binding result
TCR of SEQ ID NOs 15 and 23 (TCR, V domains shown) Valpha: GIQVEQSPPDLILQEGANSTLRCNFSDSVNNLQWFHQNPWGQLINLFYIPSGTKQNGRLSATTVATERYSLLYISSSQTTDSGVYFCAVDSATTGMFGYIFGTGTRLKVLA Vbeta: NAGVTQTPKFQVLKTGQSMTLQCAQDMNHEYMSWYRQDPGMGLRLIHYSVGAGITDQGEVPNGYNVSRSTTEDFPLRLLSAAPSQTSVYFCGIQPQGTEAFFGQGTRLTVV | recognises
TCR of SEQ ID NOs 15 and 70 (TCR, V domains shown) Valpha: GIQVEQSPPDLILQEGANSTLRCNFSDSVNNLQWFHQNPWGQLINLFYIPSGTKQNGRLSATTVATERYSLLYISSSQTTDSGVYFCAVDSATTGMFGYIFGTGTRLKVLA Vbeta: NAGVTQTPKFQVLKTGQSMTLQCAQDMNHEYMSWYRQDPGMGLRLIHYSICWGCTDQGEVPNGYNVSRSTTEDFPLRLLSAAPSQTSVYFCGVQPQGTEAFFGQGTRLTVV | recognises
TCR of SEQ ID NOs 15 and 69 (TCR, V domains shown) Valpha: GIQVEQSPPDLILQEGANSTLRCNFSDSVNNLQWFHQNPWGQLINLFYIPSGTKQNGRLSATTVATERYSLLYISSSQTTDSGVYFCAVDSATTGMFGYIFGTGTRLKVLA Vbeta: NAGVTQTPKFQVLKTGQSMTLQCAQDMNHEYMSWYRQDPGMGLRLIHYSIWEFETDQGEVPNGYNVSRSTTEDFPLRLLSAAPSQTSVYFCGVQPQGTEAFFGQGTRLTVV | recognises
TCR of SEQ ID NOs 15 and 68 (TCR, V domains shown) Valpha: GIQVEQSPPDLILQEGANSTLRCNFSDSVNNLQWFHQNPWGQLINLFYIPSGTKQNGRLSATTVATERYSLLYISSSQTTDSGVYFCAVDSATTGMFGYIFGTGTRLKVLA Vbeta: NAGVTQTPKFQVLKTGQSMTLQCAQDMNHEYMSWYRQDPGMGLRLIHYSIWEFETDQGEVPNGYNVSRSTTEDFPLRLLSAAPSQTSVYFCGIQPQGTEAFFGQGTRLTVV | recognises

More lines, now with the values ahead:

binding result | Binder
recognises | TCR of SEQ ID NOs 15 and 66 (TCR, V domains shown) Valpha: GIQVEQSPPDLILQEGANSTLRCNFSDSVNNLQWFHQNPWGQLINLFYIPSGTKQNGRLSATTVATERYSLLYISSSQTTDSGVYFCAVDSATTGMFGYIFGTGTRLKVLA Vbeta: NAGVTQTPKFQVLKTGQSMTLQCAQDMNHEYMSWYRQDPGMGLRLIHYSRWVGDTDQGEVPNGYNVSRSTTEDFPLRLLSAAPSQTSVYFCGIQPQGTEAFFGQGTRLTVV
recognises | TCR of SEQ ID NOs 21 and 65 (TCR, V domains shown) Valpha: GIQVEQSPPDLILQEGANSTLRCNFSDSVNNLQWFHQNPWGQLINLFYIPSGTKQNGRLSATTVATERYSLLYISSSQTTDSGVYFCAVDSATSGMFGYIFGTGTRLKVLA Vbeta: NAGVTQTPKFQVLKTGQSMTLQCAQDMNHEYMSWYRQDPGMGLRLIHYSRWVGDTDQGEVPNGYNVSRSTTEDFPLRLLSAAPSQTSVYFCGVQPQGTEAFFGQGTRLTVV
